Source: publication PMC10661072

Assays:
[1] = target: recombinant core spidroin eADF4(C16) (Araneus diadematus (engineered mimic of its fibroin 4 core domain)); assay: turbidity at 340 nm (fibrillization kinetics), global fit with AmyloFit; 10-40 uM eADF4(C16) in 150 mM NaF, 20 C, without and with 0.5% (w/w) pre-formed seeds; secondary nucleation model, nc set to 2 and n2 to 1; monomers to fibrils
[2] = target: recombinant core spidroin eADF4(C16) (Araneus diadematus (engineered mimic of its fibroin 4 core domain)); assay: turbidity at 340 nm (fibrillization kinetics), global fit with AmyloFit; 10-40 uM eADF4(C16) in 150 mM Na2SO4, 20 C, without and with 0.5% (w/w) pre-formed seeds; secondary nucleation model, nc set to 2 and n2 to 1; monomers to fibrils

## recombinant core spidroin eADF4(C16)
[1]
  k2 (rate constant of secondary nucleation): 0.598 M⁻¹ s⁻¹
  k+ (rate constant of fibril elongation): 7.26e+07 M⁻¹ s⁻¹
  k+k2 (elongation x secondary nucleation, combined rate parameter): 3.34e+07 M^−2 s^−2
  k+kn (elongation x primary nucleation, combined rate parameter): 420000 M^−2 s^−2
  kn (rate constant of primary nucleation): 0.00585 M⁻¹ s⁻¹
[2]
  k2 (rate constant of secondary nucleation): 7.08 M⁻¹ s⁻¹
  k+ (rate constant of fibril elongation): 2.85e+07 M⁻¹ s⁻¹
  k+k2 (elongation x secondary nucleation, combined rate parameter): 9.04e+07 M^−2 s^−2
  k+kn (elongation x primary nucleation, combined rate parameter): 1.35e+06 M^−2 s^−2
  kn (rate constant of primary nucleation): 1.42 M⁻¹ s⁻¹
